Consider 7 molecules from patent US20050182242A1, “Global analysis of protein activities using proteome chips” (priority 2001, published 2005).

What all share (details): liposome binding signal on yeast proteome chip, Cy3-streptavidin detection
The subject of data set [1] is phosphatidylcholine (PC) liposomes. Briefly: Yeast proteome chip probed with PC liposomes. The method in brief: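 Yeast proteome chips incubated 1 h at RT with sonicated liposomes of PC containing 1% (w/w) biotin-DHPE, plus 5% (w/w) of the indicated phosphoinositide where applicable. After PBS washes, bound liposomes detected with Cy3- or Cy5-streptavidin (>30 min, RT, dark) and fluorescence scanned.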

The test system of the next data set is PI(3,4,5)P3 liposomes. Briefly: Yeast proteome chip probed with PI(3,4,5)P3 liposomes.
For another data set, the system named is PI(4)P liposomes. Kind of data set: Yeast proteome chip probed with PI(4)P liposomes.
In another data set the test system is PI(3,4)P2 liposomes. Briefly: Yeast proteome chip probed with PI(3,4)P2 liposomes.
Another data set relates to PI(4,5)P2 liposomes. Kind of data set: Yeast proteome chip probed with PI(4,5)P2 liposomes.
The test system of the next data set is PI(3)P liposomes. Kind of data set: Yeast proteome chip probed with PI(3)P liposomes.

B1: KCC4: yeast GST-HisX6 fusion protein on proteome chip (protein, UniProt P25389 1-1037, looked up)
Probable …: MTVANTETHSAAKPSSTIGPWKLGETLGFGSTGKVQLAQHERTGHRTAVKVISKSIFNNNGNHSNDDSVLPYNIEREIVIMKLLSHPNVLSLYDVWETNNNLYLILEYAEKGELFNLLVDHGPLPEREAINCFRQIIIGISYCHALGIVHRDLKPENLLLDSFYNIKIADFGMAALQTDADLLETSCGSPHYAAPEIVSGLPYEGFASDVWSCGVILFALLTGRLPFDEENGNVRDLLLKVQKGQFEMPNDTEISRDAQDLIGKILVVDPRQRIKIRDILSHPLLKKYQTIKDSKSIKDLPRENTYLYPLADSNNHTSASIDDSILQNLVVLWHGRHADDIVSKLKENGTNKEKILYALLYRFKLDSVRGSNKKNRNKIKKTKKNKRSSTLSSSSSLLLNNRSIQSTPRRRTSKRHSREFSSSRKRSSFLLSSNPTDSSPIPLRSSKRITHINVASANTQATPSGVPNPHKRNSKKRSSKRLSYMPNTKRSSLTSKSLSNFTNLIDDDDWEYIEKDAKRTSSNFATLIDEIFEPEKFELAKREKAELQRKVQEAKRQSVNAQKINEDEFGSEVSDGMKELKKINDKVSSPLINYEFSQQELLQDIDTLLTNRYQLSSYTRPISRLDPGLTPVTETLPNNLKEKTALLQDTEKKIIETIRRSKFLGSLLNVRGGLSPGKSELAPIEESPIVSTTPLIYNDRMEPRRISDVEVPHFTRKSKHFTTANNRRSVLSLYAKDSIKDLNEFLIKEDPDLPPQGSTDNESRSEDPEIAESITDSRNIQYDEDDSKDGDNVNNDNILSDFPQGVGISQEYDMKDKNPNQSPISKSAEPTLVVKLPSLSSFQGKNASGLGLYQREPSKVTLPSLTSNNSSVGENIEDGAEKGTESEKIAASLSDDDLKEDNDKKDNDTVNAPTTVKKPPNSVLLKKFSKGKILELEIHAKIPEKRLYEGLHKLLEGWKQYGLKNLVFNITNMIITGKLVNDSILFLRSTLFEIMVLPNGDGRSLIKFNKKTGSTKTLTKLATEIQIILQKEGVLDK
modifications: GST-HisX6 tag
notes: yeast GST-HisX6 fusion protein on proteome chip
B1: the PC in data set [1] came out at 123.26. In addition, the “PI(3, 4, 5)P3” value with PI(3,4,5)P3 liposomes was 65.47. Further, in the data set on PI(4)P liposomes, the “PI(4)P” value was 84.92. Besides, the “PI(3, 4)P2” value in the data set with PI(3,4)P2 liposomes is recorded as 234.84. In the data set with PI(4,5)P2 liposomes, the “PI(4, 5)P2” value amounted to 67.06. In addition, the “PI(3)P” value with PI(3)P liposomes is 33.50.

B2: LYS1: yeast GST-HisX6 fusion protein on proteome chip (protein, UniProt P38998 2-373, looked up)
Saccharopine dehydrogenase …: AAVTLHLRAETKPLEARAALTPTTVKKLIAKGFKIYVEDSPQSTFNINEYRQAGAIIVPAGSWKTAPRDRIIIGLKEMPETDTFPLVHEHIQFAHCYKDQAGWQNVLMRFIKGHGTLYDLEFLENDQGRRVAAFGFYAGFAGAALGVRDWAFKQTHSDDEDLPAVSPYPNEKALVKDVTKDYKEALATGARKPTVLIIGALGRCGSGAIDLLHKVGIPDANILKWDIKETSRGGPFDEIPQADIFINCIYLSKPIAPFTNMEKLNNPNRRLRTVVDVSADTTNPHNPIPIYTVATVFNKPTVLVPTTAGPKLSVISIDHLPSLLPREASEFFSHDLLPSLELLPQRKTAPVWVRAKKLFDRHCARVKRSSRL
modifications: GST-HisX6 tag
notes: as for B1
The molecule B2 yielded a PC in data set [1] of 255.33. In addition, in the data set on PI(3,4,5)P3 liposomes, the “PI(3, 4, 5)P3” value is reported as 61.20. In the data set with PI(4)P liposomes, the “PI(4)P” value was 198.15. Besides, the “PI(3, 4)P2” value in the data set with PI(3,4)P2 liposomes was found to be 81.94. In addition, the “PI(4, 5)P2” value with PI(4,5)P2 liposomes worked out at 22.21. Also, in the data set on PI(3)P liposomes, the “PI(3)P” value is 3.50.

B3: OPY1: yeast GST-HisX6 fusion protein on proteome chip (protein, UniProt P38271 1-328, looked up)
Pleckstrin homology domain …: MIAGATAPSSQHEILIASNLIKKPSTSQNKTPTAQSSSGNNGAADGAPQGYHHHHHHHRHLWWPRTTDHQYWCVLRKNQFAYYKTRDEREAISVIPRFDILNFKISELDGILTVYTPSKDLIFKFPRGQNEKVGMELMHNWKIALEKFLSSPSGNESVTTGSDYDEEEDDDDLIVVDEKAGPSSSKHSCSLTMDEQLSREDKEFYRMFDPRNAEHQVCSGILYTKVKKKKLFNRAKWQKFNVELTNTSFNLYSFKTGKLKKSIKLDKIIDCIELDNNSKMKNDDTNFALITFDERLSFKAANDQDMVDWIINFKSGILIRKKLKAENI
modifications: GST-His6 fusion tag
notes: as for B1
On to B3, for which the PC in data set [1] worked out at 250.04. Further, the “PI(3, 4, 5)P3” value in the data set with PI(3,4,5)P3 liposomes turned out to be 41.17. For the same molecule, in the data set on PI(4)P liposomes, the “PI(4)P” value worked out at 188.13. Besides, the “PI(3, 4)P2” value with PI(3,4)P2 liposomes was 179.27. The “PI(4, 5)P2” value with PI(4,5)P2 liposomes was 37.89. Also, the “PI(3)P” value in the data set on PI(3)P liposomes worked out at 17.50.

B4: ARP10: yeast GST-HisX6 fusion protein on proteome chip (protein, UniProt Q04549 1-284, looked up)
Actin-like protein ARP10: MSNTIVIVYLGANRIEIGRSADACPQEIIAWKTGSINEKNREELKKIFEHYFQICNILGNREVQVLILEDIFISVVEKRIICSILFKEFDCAHVSFVPRAIVHCLSCNTRNAIVIDIGTNYTTCVPIFDLRPLQQFIKYSKRGKRQVESRIPLPGSLYMPIFFDEEYNSKNCEVDETPVINLVKNIVESLPIDLRRPLRENIIIVNIEEAYETVIRNLFKLKMDTSKIQFPKNYWQAGSACAKILLHYKGSNIVGIERDEFYNNPHIAPDWFDYYFRTGVKRLQ
modifications: GST-HisX6 tag
notes: as for B1
In the case of B4, the PC in data set [1] came out at 119.74. Besides, the “PI(3, 4, 5)P3” value in the data set with PI(3,4,5)P3 liposomes is 30.15. For the same molecule, the “PI(4)P” value in the data set with PI(4)P liposomes was determined as 98.64. Further, the “PI(3, 4)P2” value in the data set on PI(3,4)P2 liposomes is 29.20. Further, the “PI(4, 5)P2” value with PI(4,5)P2 liposomes is recorded as 32.01. In addition, the “PI(3)P” value with PI(3)P liposomes was 51.00.

B5: AKL1: yeast GST-HisX6 fusion protein on proteome chip (protein, UniProt P38080 2-1108, looked up)
Serine/threonine-protein …: SITNGTSRSVSAMGHPAVERYTPGHIVCVGTHKVEVVNYLAEGGFAQIYVVKFLEYLNEFDNTASVPLKIGDVACLKRVLVQDENGLNEMRNEVEVMKKLKGAPNIVQYFDSNASRRRDGVQGFEVLLLMELCPNKSLLDYMNQRLSTKLTEAEIVKIMYDVALSISQMHYLPVSLIHRDIKIENVLVDAKNNFKLADFGSTSTCFPIVTTHQDIALLTQNIYVHTTPQYRSPEMIDLYRCLPINEKSDIWALGVFLYKLLFFTTPFEMTGQFAILHSKYEFPVNKYSSKLINLIIIMLAENPNLRPNIYQVLYHLCEILNVEVPIEDKYAEGAYNFSKYTQFQNKLQNVQLQMYQLQQKKIMQNNKLSDSEENLLNDMFLSSFEISSKLPMNASDGHAAVSRIPSQNVGQELEEEKESQSDQRKSTLSEDKSSRTTSNANSSGTANNPQEINTIQSPGIEDKSIFENKTPGELYYPSVSELDTYLDKELVKQSSDPTISEQSPRLNTQSLPQRQKSTSSYSSGGRSMKSTSYGAATIGSDEALANEKTAGINKMKQHKSNNPFPKMNVAYHSTNELSNDASNFFLEEQQQGQRYQQAQNQTGTQGNTFPDESQYQSRVEQQQQQQDQPKGPANYSQRNFYTGRDRSNKPMQLGGTIAGDSGNRRVNFQNISQNYATNSQSGYLPSQNSPAIPMVRPVISMNQQQAQQIQAQQLQAQQMQAKQQMQAKQQMQVQQQLQVQQQMQIQNANNNGTYVSDRTNHTTEDMRNAQGGEPPILAGNSANEPMHSSSKNEALLIELSPLKEDAGKQSFQDTNEPQTGGIEDAGGSGTIKGSNNNRNGVLNLSLNEMDLSRDDTGAAVSSFSSSSSSASIQQAKLSGRKGSSKRNNYSTDELGDSMVSSESIDIDLDDARRGKTAERRPLHNERGHKDQARSSDASKSNQFKSKDFSSVSTRQPRQSLDLNFQEVNLSSPTLTQEHRNKNDSPAPNSHHSYRVSPHASTAITENKRHSTGHELSTRSNGKHETHRTGSKQRHDLERYRHSKDKDSNSSITISTSTPSEMRKSFARARQSLDLERVRREAMASSASSSGGSNGKRRSFFSVFRSEK
modifications: GST-His6 tag
notes: as for B1
The molecule B5 displayed a PC in data set [1] of 207.20. For the same molecule, in the data set on PI(3,4,5)P3 liposomes, the “PI(3, 4, 5)P3” value came out at 93.38. In addition, in the data set on PI(4)P liposomes, the “PI(4)P” value was 189.44. Besides, the “PI(3, 4)P2” value in the data set with PI(3,4)P2 liposomes came out at 132.49. Also, the “PI(4, 5)P2” value in the data set with PI(4,5)P2 liposomes was 57.48. The “PI(3)P” value in the data set on PI(3)P liposomes is reported as 19.50.

B6: ROT1: yeast GST-HisX6 fusion protein on proteome chip (protein, UniProt Q03691 25-256, looked up)
Protein ROT1: EDESNSIYGTWSSKSNQVFTGPGFYDPVDELLIEPSLPGLSYSFTEDGWYEEATYQVSGNPRNPTCPMASLIYQHGTYNISENGTLVLNPIEVDGRQLFSDPCNDDGVSTYSRYNQTETFKEYAVGIDPYHGIYTLQLYQYDGTPMQPLYLAYRPPMMLPTETLNPTSSATSTDDPSSNKKRSLRSLVRRSLENRHKTNAIKRQNTSFLTSNAIWYISAGMLGVGSLLFLAF
modifications: GST-His6 tag
notes: as for B1
In data set [1], B6 came in with a PC of 121.50. In addition, the “PI(3, 4, 5)P3” value in the data set on PI(3,4,5)P3 liposomes came to 99.11. In the data set with PI(4)P liposomes, the “PI(4)P” value came to 52.04. Moreover, in the data set with PI(3,4)P2 liposomes, the “PI(3, 4)P2” value was 137.98. For the same molecule, the “PI(4, 5)P2” value in the data set on PI(4,5)P2 liposomes is 63.58. Moreover, in the data set on PI(3)P liposomes, the “PI(3)P” value was found to be 33.25.

B7: MET8: yeast GST-HisX6 fusion protein on proteome chip (protein)
chain: MVKSLQLAHQLKDKKILLIGGGEVGLTRLYKLIPTGCKLTLVSPDLHKSIIPKFGKFIQNEDQPDYREDAKRFINPNWDPTKNEIYEYIRSDFKDEYLDLEDENDAWYIIMTCIPDHPESARIYHLCKERFGKQQLVNVADKPDLCDFYFGANLEIGDRLQILISTNGLSPRFGALVRDEIRNLFTQMGDLALEDAVVKLGELRRGIRLLAPDDKDVKYRMDWARRCTDLFGIQHCHNIDVKRLLDLFKVMFQEQNCSLQFPPRERLLSEYCSS
modifications: left off: a dimerising Fc or GST
notes: as for B1
The molecule B7 gave a PC in data set [1] of 188.12. Moreover, in the data set with PI(3,4,5)P3 liposomes, the “PI(3, 4, 5)P3” value is 25.42. Besides, the “PI(4)P” value in the data set on PI(4)P liposomes stood at 175.94. In the data set with PI(3,4)P2 liposomes, the “PI(3, 4)P2” value amounted to 95.44. Moreover, the “PI(4, 5)P2” value in the data set with PI(4,5)P2 liposomes is recorded as 244.09. Moreover, the “PI(3)P” value in the data set on PI(3)P liposomes turned out to be 117.00.
